{
  "source": "patent US6994974",
  "about": "(TRUSTEES OF COLUMBIA UNIVERSITY IN THE CITY OF NEW YORK, dated 2006)",
  "binders": {"B1": {"name": "TrcHis-chloramphenicol acetyltransferase (CAT) fusion protein (other)", "chain": "MEKKITGYTTVDISQWHRKEHFEAFQSVAQCTYNQTVQLDITAFLKTVKKNKHKFYPAFIHILARLMNAHPEFRMAMKDGELVIWDSVHPCYTVFHEQTETFSSLWSEYHDDFRQFLHIYSQDVACYGENLAYFPKGFIENMFFVSANPWVSFTSFDLNVANMDNFFAPVFTMGKYYTQGDKVLMPLAIQVHHAVCDGFHVGRMLNELQQYCDEWQGGA", "notes": "also called TrcHis-CAT; not shown: N-terminal TrcHis leader of the Invitrogen control construct"}},
  "target": "T1, amyloid-beta peptide (1-40), freshly prepared synthetic (UniProt P05067 672-711, 125I label when used as tracer; residue not stated)",
  "T1 construct": "domain: amyloid-beta peptide (1-40)",
  "assay": "radioligand binding to coated microtiter wells",
  "data": [
    {"binder": "B1", "values": [
      {"measurement": "binding result", "value": "no binding (tested: 100 nM)"}
    ]}
  ]
}
